# Non-standard residues stand in square brackets, D forms with d. No end group written: not given here. *: point of attachment. FITC = O=C1OC2(c3ccc(O)cc3Oc3cc(O)ccc32)c2ccc(NC(=S)*)cc21; pY = N[C@@H](Cc1ccc(OP(=O)(O)O)cc1)C(=O)O; Ahx = NCCCCCC(=O)O
# T1: HOIP PUB domain (HOIP 1-184) (Homo sapiens, UniProt Q96EP0)
# T1 construct: PUB domains from HOIP (aa 1–184, red); His6 (3C-cleavable, pOPINB) (N, cleaved yes); made in house; host or cells: E. coli Rosetta2 (DE3) pLacI
# T1 sequence (Q96EP0 1-184): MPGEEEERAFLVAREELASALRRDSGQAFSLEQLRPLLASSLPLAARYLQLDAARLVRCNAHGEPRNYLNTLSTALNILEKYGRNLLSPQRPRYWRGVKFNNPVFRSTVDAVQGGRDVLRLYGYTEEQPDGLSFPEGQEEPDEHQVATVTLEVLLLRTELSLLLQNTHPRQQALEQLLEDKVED
# T2: HOIP extended PUB domain (aa 1–184) (UniProt Q96EP0 1-184)
# T2 chain: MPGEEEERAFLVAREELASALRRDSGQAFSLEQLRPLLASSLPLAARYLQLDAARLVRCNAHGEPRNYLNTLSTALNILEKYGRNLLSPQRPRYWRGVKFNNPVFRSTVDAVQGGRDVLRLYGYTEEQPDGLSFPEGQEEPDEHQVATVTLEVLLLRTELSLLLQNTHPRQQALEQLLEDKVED
# Tests used:
# [1] = tested on: endogenous LUBAC (HOIP, HOIL-1, SHARPIN); assay: coimmunoprecipitation of endogenous LUBAC components with HA-tagged OTULIN; type: cell-based; conditions: HA-OTULIN variants in HEK293T cells, anti-HA IP, western blot
# Description: (§1) Transfected HEK293T or U2OS and NOD2 cells were lysed in the presence of protease and phosphatase inhibitors. Clarified lysates were incubated overnight with anti-V5 and anti-HA-agarose resin. […]
# (§2) siOTULIN: […], siMM […]
# (§3) Immunoprecipitation of HOIP-V5 and HA-OTULIN
# (§4) HEK293T or U2OS/NOD2 cells were transfected as indicated. The cells were lysed in IP buffer buffer (25 mM HEPES pH 7.4, 150 mM KCl, 2 mM MgCl2, 1 mM EGTA, 0.5% (v/v) Triton X-100) supplemented with 5 mM NEM (Sigma-Aldrich), cOmplete protease inhibitor cocktail (Roche) and PhosSTOP
# (§5) (Roche). After 30 minutes on ice, the lysates were cleared by centrifugation and incubated overnight at 4 °C with anti-V5-agarose resin or anti-HA-agarose resin. The beads were washed four times in ice-cold IP buffer and the precipitated material was eluted with 0.2 M glycine, pH 2.5. […]
# [2] = molecular target: T1, HOIP PUB domain (HOIP 1-184); assay: fluorescence polarization binding of FITC-Ahx peptides to HOIP PUB domain; conditions: for reduction of HOIP binding versus wild-type OTULIN peptide: OTULIN peptide point mutants
# Description: Serially diluted PUB domains and HOIP variants were mixed with an equal volume of 100 nM FITC-Ahx-labeled peptides of OTULIN and p97. Fluorescence polarization was recorded on a PheraStar plate reader (BMG LABTECH) and fitted to a one-site binding model with GraphPad Prism 5.
# Fluorescence polarization binding assays
# 10 µl of 100 nM FITC-Ahx peptides of either OTULIN (49-67) or p97 (797-806) were aliquoted into a 384-well low volume plate (Corning). Serial dilutions of HOIP PUB into FP assay buffer (20 mM Tris pH 7.4, 100 mM NaCl, 1 mM DTT) were prepared and 10 µl of this was aliquoted to FITC-Ahx peptide-containing wells. Fluorescence polarization was recorded on a PheraStar plate reader (BMG Labtech) using an optics module with $ex = 485 nm and $em = 520 nm. To derive binding constants (KD), polarization values were fitted to a one-site binding model using Graphpad Prism 5. […]
# endogenous OTULIN = assay: coimmunoprecipitation of endogenous OTULIN with tagged HOIP/HOIL-1; type: cell-based; conditions: tagged HOIP/HOIL-1 constructs, HEK293T or U2OS/NOD2 cells, western blot
# Description: as §1, §2, §3, §4, §5
# [3] = molecular target: T2, HOIP extended PUB domain (aa 1–184); assay: FP
molecule,measurement,setting,value
OTULIN Y56A: HA-tagged full-length OTULIN with PIM point mutation Y56A,coimmunoprecipitation of endogenous LUBAC components (in words),[1],abrogated binding
M55D: fluorescently labeled OTULIN peptide (aa 49–67) with point mutation M55D ({FITC-Ahx}-AEHEEDDYRAADEIEKEKE),binding to HOIP PUB domain (in words),[2],abrogated binding
"Y56A: fluorescently labeled OTULIN peptide (aa 49–67) with point mutation Y56A ({FITC-Ahx}-AEHEEDMARAADEIEKEKE; UniProt Q96BN8 49-67, looked up, variant Y56A)",binding to HOIP PUB domain (in words),[2],abrogated binding
OTULIN D54A: HA-tagged full-length OTULIN with PIM point mutation D54A,coimmunoprecipitation of endogenous LUBAC components (in words),[1],Residual binding was still observed
OTULIN Y56E: HA-tagged full-length OTULIN with PIM point mutation Y56E,coimmunoprecipitation of endogenous LUBAC components (in words),[1],abrogated binding
Y56W: fluorescently labeled OTULIN peptide (aa 49–67) with point mutation Y56W ({FITC-Ahx}-AEHEEDMWRAADEIEKEKE),reduction of HOIP binding versus wild-type OTULIN peptide,[2],100 fold
OTULIN Y56F: HA-tagged full-length OTULIN with PIM point mutation Y56F,coimmunoprecipitation of endogenous LUBAC components (in words),[1],abrogated binding
FITC-Ahx-OTULIN 49-63 pY56: Tyr56-phosphorylated FITC-Ahx-labeled OTULIN peptide (legend: 49–67) ({FITC-Ahx}-AEHEEDM[pY]RAADEIEKEKE),binding to HOIP PUB domain (in words),[2],unable to bind HOIP
D54A: fluorescently labeled OTULIN peptide (aa 49–67) with point mutation D54A ({FITC-Ahx}-AEHEEAMYRAADEIEKEKE),reduction of HOIP binding versus wild-type OTULIN peptide,[2],60 fold
"Y82F: V5-tagged HOIP with point mutation Y82F in the PUB binding site (protein, UniProt Q96EP0 1-1072, looked up, variant Y82F, V5 tag) E3 ubiquitin-protein ligase …: MPGEEEERAFLVAREELASALRRDSGQAFSLEQLRPLLASSLPLAARYLQLDAARLVRCNAHGEPRNYLNTLSTALNILEKFGRNLLSPQRPRYWRGVKFNNPVFRSTVDAVQGGRDVLRLYGYTEEQPDGLSFPEGQEEPDEHQVATVTLEVLLLRTELSLLLQNTHPRQQALEQLLEDKVEDDMLQLSEFDPLLREIAPGPLTTPSVPGSTPGPCFLCGSAPGTLHCPSCKQALCPACDHLFHGHPSRAHHLRQTLPGVLQGTHLSPSLPASAQPRPQSTSLLALGDSSLSSPNPASAHLPWHCAACAMLNEPWAVLCVACDRPRGCKGLGLGTEGPQGTGGLEPDLARGRWACQSCTFENEAAAVLCSICERPRLAQPPSLVVDSRDAGICLQPLQQGDALLASAQSQVWYCIHCTFCNSSPGWVCVMCNRTSSPIPAQHAPRPYASSLEKGPPKPGPPRRLSAPLPSSCGDPEKQRQDKMREEGLQLVSMIREGEAAGACPEEIFSALQYSGTEVPLQWLRSELPYVLEMVAELAGQQDPGLGAFSCQEARRAWLDRHGNLDEAVEECVRTRRRKVQELQSLGFGPEEGSLQALFQHGGDVSRALTELQRQRLEPFRQRLWDSGPEPTPSWDGPDKQSLVRRLLAVYALPSWGRAELALSLLQETPRNYELGDVVEAVRHSQDRAFLRRLLAQECAVCGWALPHNRMQALTSCECTICPDCFRQHFTIALKEKHITDMVCPACGRPDLTDDTQLLSYFSTLDIQLRESLEPDAYALFHKKLTEGVLMRDPKFLWCAQCSFGFIYEREQLEATCPQCHQTFCVRCKRQWEEQHRGRSCEDFQNWKRMNDPEYQAQGLAMYLQENGIDCPKCKFSYALARGGCMHFHCTQCRHQFCSGCYNAFYAKNKCPEPNCRVKKSLHGHHPRDCLFYLRDWTALRLQKLLQDNNVMFNTEPPAGARAVPGGGCRVIEQKEVPNGLRDEACGKETPAGYAGLCQAHYKEYLVSLINAHSLDPATLYEVEELETATERYLHVRPQPLAGEDPPAYQARLLQKLTEEVPLGQSIPRRRK",coimmunoprecipitation of endogenous OTULIN (in words),endogenous OTULIN,decreased binding
"K99E: V5-tagged HOIP with point mutation K99E in the PUB binding site (protein, left off: V5, end not stated, kept) MPGEEEERAFLVAREELASALRRDSGQAFSLEQLRPLLASSLPLAARYLQLDAARLVRCNAHGEPRNYLNTLSTALNILEKYGRNLLSPQRPRYWRGVEFNNPVFRSTVDAVQGGRDVLRLYGYTEEQPDGLSFPEGQEEPDEHQVATVTLEVLLLRTELSLLLQNTHPRQQALEQLLEDKVEDDMLQLSEFDPLLREIAPGPLTTPSVPGSTPGPCFLCGSAPGTLHCPSCKQALCPACDHLFHGHPSRAHHLRQTLPGVLQGTHLSPSLPASAQPRPQSTSLLALGDSSLSSPNPASAHLPWHCAACAMLNEPWAVLCVACDRPRGCKGLGLGTEGPQGTGGLEPDLARGRWACQSCTFENEAAAVLCSICERPRLAQPPSLVVDSRDAGICLQPLQQGDALLASAQSQVWYCIHCTFCNSSPGWVCVMCNRTSSPIPAQHAPRPYASSLEKGPPKPGPPRRLSAPLPSSCGDPEKQRQDKMREEGLQLVSMIREGEAAGACPEEIFSALQYSGTEVPLQWLRSELPYVLEMVAELAGQQDPGLGAFSCQEARRAWLDRHGNLDEAVEECVRTRRRKVQELQSLGFGPEEGSLQALFQHGGDVSRALTELQRQRLEPFRQRLWDSGPEPTPSWDGPDKQSLVRRLLAVYALPSWGRAELALSLLQETPRNYELGDVVEAVRHSQDRAFLRRLLAQECAVCGWALPHNRMQALTSCECTICPDCFRQHFTIALKEKHITDMVCPACGRPDLTDDTQLLSYFSTLDIQLRESLEPDAYALFHKKLTEGVLMRDPKFLWCAQCSFGFIYEREQLEATCPQCHQTFCVRCKRQWEEQHRGRSCEDFQNWKRMNDPEYQAQGLAMYLQENGIDCPKCKFSYALARGGCMHFHCTQCRHQFCSGCYNAFYAKNKCPEPNCRVKKSLHGHHPRDCLFYLRDWTALRLQKLLQDNNVMFNTEPPAGARAVPGGGCRVIEQKEVPNGLRDEACGKETPAGYAGLCQAHYKEYLVSLINAHSLDPATLYEVEELETATERYLHVRPQPLAGEDPPAYQARLLQKLTEEVPLGQSIPRRRK",coimmunoprecipitation of endogenous OTULIN (in words),endogenous OTULIN,decreased binding
{FITC-Ahx}-AEHEEAMYRAADEIEKEKE [fluorescently labeled OTULIN peptide (aa 49–67) D54A],Kd,[3],11.2 µM
AEHEEDMFRAADEIEKEKE (not fully specified (N-terminus)) [fluorescently labeled OTULIN peptide (aa 49–67) Y56F],Kd,[3],64.5 µM
{FITC-Ahx}-AEHEEDMWRAADEIEKEKE [fluorescently labeled OTULIN peptide (aa 49–67) Y56W],Kd,[3],21.3 µM

# — article PMC4017264 (Molecular Cell, 2014)
